The values that follow come from paper doi:10.1101/2020.06.08.118984 (bioRxiv, 2020).

By stoichiometry N is commonly meant the number of molecules, sites or subunits per partner or assembly.

The series deals with the molecule itself. The series is described as follows: crystal structure.

B1: mouse TBPL2 core domain (TBPL2^C) (domain or fragment)
chain: SGIVPQLQNVVSTANLACKLDLRKIALNAKNTEYNPKRFAAVIMRIREPRTTALIFSSGKVVCTGAKSEEESRLAARKYARVVQKLGFPVRFFNFKIQNMVGSCDVKFPIRLEILALTHRQFSSSYEPELFPGLIYKMVKPQVVLLIFASGKVVLTGAKERSEIYEAFENMYPILESFKK
Consider B1, for which the “stoichiometry N” value was 2.
